# B1: Staphylokinase (Staphylococcus aureus (strain N315)), Q99SU7 (parent)
# chain: MLKRSLLFLTVLLLLFSFSSITNEVSASSSFDKGKYKKGDDASYFEPTGPYLMVNVTGVDSKGNELLSPHYVEFPIKPGTTLTKEKIEYYVEWALDATAYKEFRVVELDPSAKIEVTYYDKNKKKEETKSFPITEKGFVVPDLSEHIKNPGFNLITKVVIEKK
# Variants of: B1
# Details: with plmn_human PLG
row,Variant,effect of a mutation on the interaction
1,Y71F,decreasing interaction
2,V72F,decreasing interaction

# Variants of: B1
# Details: with plmn_human PLG
# Remark: another data set of the same source
row,Variant,effect of a mutation on the interaction
1,V72A,disrupting interaction

# Variants of: B1
# Details: with plmn_human PLG
# Remark: another data set of the same source
row,Variant,effect of a mutation on the interaction
1,V72A,decreasing interaction

# Variants of: B1
# Details: with plmn_human PLG
# Remark: another data set of the same source
row,Variant,effect of a mutation on the interaction
1,V72Y,decreasing interaction

# Variants of: B1
# Details: with plmn_human PLG
# Remark: another data set of the same source
row,Variant,effect of a mutation on the interaction
1,P69L,disrupting interaction

# Variants of: B1
# Details: with plmn_human PLG
# Remark: another data set of the same source
row,Variant,effect of a mutation on the interaction
1,P69L,decreasing interaction

# Reference: IntAct's records for PubMed 22321644
